The values that follow come from article PMC10904058 (2024).

This assay deals with FASN of the SPR analysis (UniProt P49327 1-2511). The assay can be described thus: SPR.

B1: TRIM56 of the SPR analysis (enzyme)
chain: MVSHGSSPSLLEALSSDFLACKICLEQLRAPKTLPCLHTYCQDCLAQLADGGRVRCPECRETVPVPPEGVASFKTNFFVNGLLDLVKARACGDLRAGKPACALCPLVGGTSTGGPATARCLDCADDLCQACADGHRCTRQTHTHRVVDLVGYRAGWYDEEARERQAAQCPQHPGEALRFLCQPCSQLLCRECRLDPHLDHPCLPLAEAVRARRPGLEGLLAGVDNNLVELEAARRVEKEALARLREQAARVGTQVEEAAEGVLRALLAQKQEVLGQLRAHVEAAEEAARERLAELEGREQVARAAAAFARRVLSLGREAEILSLEGAIAQRLRQLQGCPWAPGPAPCLLPQLELHPGLLDKNCHLLRLSFEEQQPQKDGGKDGAGTQGGEESQSRREDEPKTERQGGVQPQAGDGAQTPKEEKAQTTREEGAQTLEEDRAQTPHEDGGPQPHRGGRPNKKKKFKGRLKSISREPSPALGPNLDGSGLLPRPIFYCSFPTRMPGDKRSPRITGLCPFGPREILVADEQNRALKRFSLNGDYKGTVPVPEGCSPCSVAALQSAVAFSASARLYLINPNGEVQWRRALSLSQASHAVAALPSGDRVAVSVAGHVEVYNMEGSLATRFIPGGKASRGLRALVFLTTSPQGHFVGSDWQQNSVVICDGLGQVVGEYKGPGLHGCQPGSVSVDKKGYIFLTLREVNKVVILDPKGSLLGDFLTAYHGLEKPRVTTMVDGRYLVVSLSNGTIHIFRVRSPDS
In the case of B1, the Kd amounted to 17 nM.
